Laboratory results from US20260258143A1 (published 2026).
Read-outs that look alike come from different tables or passages of the source.

What was measured:
Assay in all cases: SPR
[1] = target: T1, human CD25-extracellular domain (CD25-ECD) (UniProt P01589 22-240)
T1 chain: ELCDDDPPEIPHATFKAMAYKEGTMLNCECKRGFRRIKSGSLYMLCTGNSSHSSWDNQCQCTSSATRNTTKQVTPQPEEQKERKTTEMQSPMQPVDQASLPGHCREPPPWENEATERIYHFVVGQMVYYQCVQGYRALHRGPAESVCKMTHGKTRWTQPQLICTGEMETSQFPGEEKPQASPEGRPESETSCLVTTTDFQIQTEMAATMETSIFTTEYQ

cynomolgus CD25 [2] = target: cynomolgus CD25
cCD25 = target: cCD25
cynomolgus CD25 [3] = target: cynomolgus CD25; remark: listed apart in the source
[4] = target: T1, human CD25-extracellular domain …
cynomolgus CD25 [5] = target: cynomolgus CD25; remark: listed apart in the source
[6] = target: T1, human CD25-extracellular domain …
[7] = target: T1, human CD25-extracellular domain …
[8] = target: T1, human CD25-extracellular domain …

B1: ODY-83B03Hu1 (VHH)
VHH: EVQLVESGGGLVQPGGSLRLSCAASGMPLVAMGWYRQAPGKQRELVASISSGGNTGYADSVKGRFTISRDNAKKTVYLQMNSVRPEDTGVYYCNIYRSQVPPTRYSWGQGTQVTVSS
B1 gave a Kd [1] of 21 nM and a Kd (cynomolgus CD25 [2]) of 112 nM.

B2: 47D3 (VHH)
VHH: EVQLLESGGGLVQPGGSLRVSCAASGRTFSWNGMGWFRQAPGKEREFVAAISQSGGRTRYADSVKGRFTISRDNAKNTVYLQMNSLRPEDTAVYYCAASDFLLATTISAYDYWGQGTQVTVSS
Work on B2 yielded a Kd (cCD25) of 49 nM and a Kd (cynomolgus CD25 [3]) of 49 nM.

B3: ODY-83B05Hu1 (VHH)
VHH: EVQLLESGGGLVQPGGSLRLSCAASGFTLDYYAIGWFRQAPGKEREGVLSISSTDGRTYYADSVKGRFTISRDNPKNTVYLQLNSLRPEDTAVYYCAAKRLGPMVHRYSLEVLTPLFLDEYDYWGQGTQVTVSS
For B3, the Kd [4] was 35 nM and the Kd (cynomolgus CD25 [5]) was 97 nM.

B4: 83F07Hu1_L (antibody, V domains shown)
VH: EVQLLESGGGLVQPGGSLRLSCAASGFTLDYYAIGWFRQAPGKEREGVLSISSTDGRTYYADSVKGRFTISRDNPKNTVYLQLNSLRPEDTAVYYCAAKRLGPLVHQYSLEVLTPLFLDEYDYWGQGTQVTVSS
For B4, the Kd [6] was 97 nM.

B5: humanized anti-CD25 V-body 46A3 (VHH)
VHH: EVQLLESGGGLAQPGGSLRLSCAASGFTFSNYAMSWARQAPGKGLEWVSGIYSDGSGTYYADSVKGRFTISRDNAKNTVYLQMNSLRPEDTAVYYCAKGRNSGSYYPWDDYWGQGTQVTVSS
For B5, the Kd [7] was 49 nM and the Kd [8] was 49 nM.
